Measurements reported in the supplement of paper PMC11246515.
± gives the standard deviation of the averaged measurements.

Test: total protein half-life in vivo (active degradation + dilution); higher = more stable protein
[1] = wild type E. coli NCM3722, growth: C-lim chemostat, doubling time 6 h
[2] = wild type E. coli NCM3722, growth: C-lim chemostat, doubling time 12 h
[3] = E. coli NCM3722 delta-clpP delta-lon delta-hslV, growth: N-lim chemostat, doubling time 6 h
[4] = E. coli NCM3722 delta-clpP, growth: N-lim chemostat, doubling time 6 h
[5] = E. coli NCM3722 delta-hslV, growth: N-lim chemostat, doubling time 6 h
[6] = E. coli NCM3722 delta-smpB, growth: N-lim chemostat, doubling time 6 h
[7] = wild type E. coli NCM3722, growth: N-lim chemostat, doubling time 6 h
[8] = wild type E. coli NCM3722, growth: N-lim chemostat, doubling time 12 h
[9] = wild type E. coli NCM3722, growth: P-lim chemostat, doubling time 6 h
[10] = wild type E. coli NCM3722, growth: P-lim chemostat, doubling time 12 h
[11] = E. coli NCM3722 delta-lon, growth: N-lim chemostat, doubling time 6 h
[12] = wild type E. coli NCM3722, growth: C-lim chemostat, doubling time 3 h

MDIPVNAAKPGRRRYLTLVMIFITVVICYVDRANLAVASAHIQEEFGITKAEMGYVFSAFAWLYTLCQIPGGWFLDRVGSRVTYFIAIFGWSVATLFQGFATGLMSLIGLRAITGIFEAPAFPTNNRMVTSWFPEHERASAVGFYTSGQFVGLAFLTPLLIWIQEMLSWHWVFIVTGGIGIIWSLIWFKVYQPPRLTKGISKAELDYIRDGGGLVDGDAPVKKEARQPLTAKDWKLVFHRKLIGVYLGQFAVASTLWFFLTWFPNYLTQEKGITALKAGFMTTVPFLAAFVGVLLSGWVADLLVRKGFSLGFARKTPIICGLLISTCIMGANYTNDPMMIMCLMALAFFGNGFASITWSLVSSLAPMRLIGLTGGVFNFAGGLGGITVPLVVGYLAQGYGFAPALVYISAVALIGALSYILLVGDVKRVG [P0AA76]
total protein half-life in vivo [1]: 4.54 ± 0.49 h | total protein half-life in vivo [2]: 7.29 ± 0.43 h

MTTNTVSRKVAWLRVVTLAVAAFIFNTTEFVPVGLLSDIAQSFHMQTAQVGIMLTIYAWVVALMSLPFMLMTSQVERRKLLICLFVVFIASHVLSFLSWSFTVLVISRIGVAFAHAIFWSITASLAIRMAPAGKRAQALSLIATGTALAMVLGLPLGRIVGQYFGWRMTFFAIGIGALITLLCLIKLLPLLPSEHSGSLKSLPLLFRRPALMSIYLLTVVVVTAHYTAYSYIEPFVQNIAGFSANFATALLLLLGGAGIIGSVIFGKLGNQYASALVSTAIALLLVCLALLLPAANSEIHLGVLSIFWGIAMMIIGLGMQVKVLALAPDATDVAMALFSGIFNIGIGAGALVGNQVSLHWSMSMIGYVGAVPAFAALIWSIIIFRRWPVTLEEQTQ
total protein half-life in vivo [3]: 5.1 ± 0.12 h | total protein half-life in vivo [4]: 4.77 h | total protein half-life in vivo [5]: 4.16 h | total protein half-life in vivo [6]: 4.997 ± 0.0071 h | total protein half-life in vivo [7]: 4.68 h | total protein half-life in vivo [8]: 7.998 ± 0.022 h | total protein half-life in vivo [9]: 5.12 ± 0.23 h | total protein half-life in vivo [10]: 8.61 ± 0.96 h

MHAYLHCLSHSPLVGYVDPAQEVLDEVNGVIASARERIAAFSPELVVLFAPDHYNGFFYDVMPPFCLGVGATAIGDFGSAAGELPVPVELAEACAHAVMKSGIDLAVSYCMQVDHGFAQPLEFLLGGLDKVPVLPVFINGVATPLPGFQRTRMLGEAIGRFTSTLNKRVLFLGSGGLSHQPPVPELAKADAHMRDRLLGSGKDLPASERELRQQRVISAAEKFVEDQRTLHPLNPIWDNQFMTLLEQGRIQELDAVSNEELSAIAGKSTHEIKTWVAAFAAISAFGNWRSEGRYYRPIPEWIAGFGSLSARTEN [P0ABR9]
total protein half-life in vivo [3]: 5.32 h

MMRKMLLAAALSVTAMTAHADYQCSVTPRDDVIVSPQTVQVKGENGNLVITPDGNVMYNGKQYSLNAAQREQAKDYQAELRSTLPWIDEGAKSRVEKARIALDKIIVQEMGESSKMRSRLTKLDAQLKEQMNRIIETRSDGLTFHYKAIDQVRAEGQQLVNQAMGGILQDSINEMGAKAVLKSGGNPLQNVLGSLGGLQSSIQTEWKKQEKDFQQFGKDVCSRVVTLEDSRKALVGNLK [P0ADS9]
total protein half-life in vivo [3]: 3.83 ± 0.21 h | total protein half-life in vivo [4]: 5 ± 1 h | total protein half-life in vivo [5]: 5.36 ± 0.32 h | total protein half-life in vivo [11]: 6.04 ± 0.83 h | total protein half-life in vivo [6]: 5.818 ± 0.046 h | total protein half-life in vivo [12]: 2.92 ± 0.17 h | total protein half-life in vivo [1]: 5.11 ± 0.8 h | total protein half-life in vivo [2]: 8.05 ± 1.5 h | total protein half-life in vivo [7]: 5.76 ± 0.15 h | total protein half-life in vivo [8]: 10.3 ± 0.12 h | total protein half-life in vivo [9]: 5.0188 ± 0.0027 h | total protein half-life in vivo [10]: 10 ± 0.48 h

MKLQKQLLEAVEHKQLRPLDVQFALTVAGDEHPAVTLAAALLSHDAGEGHVCLPLSRLENNEASHPLLATCVSEIGELQNWEECLLASQAVSRGDEPTPMILCGDRLYLNRMWCNERTVARFFNEVNHAIEVDEALLAQTLDKLFPVSDEINWQKVAAAVALTRRISVISGGPGTGKTTTVAKLLAALIQMADGERCRIRLAAPTGKAAARLTESLGKALRQLPLTDEQKKRIPEDASTLHRLLGAQPGSQRLRHHAGNPLHLDVLVVDEASMIDLPMMSRLIDALPDHARVIFLGDRDQLASVEAGAVLGDICAYANAGFTAERARQLSRLTGTHVPAGTGTEAASLRDSLCLLQKSYRFGSDSGIGQLAAAINRGDKTAVKTVFQQDFTDIEKRLLQSGEDYIAMLEEALAGYGRYLDLLQARAEPDLIIQAFNEYQLLCALREGPFGVAGLNERIEQFMQQKRKIHRHPHSRWYEGRPVMIARNDSALGLFNGDIGIALDRGQGTRVWFAMPDGNIKSVQPSRLPEHETTWAMTVHKSQGSEFDHAALILPSQRTPVVTRELVYTAVTRARRRLSLYADERILSAAIATRTERRSGLAALFSSRE
total protein half-life in vivo [3]: 4.81 ± 0.19 h | total protein half-life in vivo [4]: 4.01 ± 1.1 h | total protein half-life in vivo [5]: 2.9 ± 0.19 h | total protein half-life in vivo [11]: 3.33 ± 0.44 h | total protein half-life in vivo [6]: 2.739 ± 0.015 h | total protein half-life in vivo [12]: 2.89 ± 0.43 h | total protein half-life in vivo [1]: 4.39 ± 0.1 h | total protein half-life in vivo [2]: 6.98 ± 0.28 h | total protein half-life in vivo [7]: 2.97 ± 0.079 h | total protein half-life in vivo [8]: 4.37 ± 0.29 h | total protein half-life in vivo [9]: 4.36 ± 0.065 h | total protein half-life in vivo [10]: 7.54 ± 0.6 h

MPTQEAKAHHVGEWASLRNTSPEIAEAIFEVAGYDEKMAEKIWEEGSDEVLVKAFAKTDKDSLFWGEQTIERKNV [P0AB14]
total protein half-life in vivo [3]: 5.53 ± 0.41 h | total protein half-life in vivo [5]: 2.63 h | total protein half-life in vivo [11]: 3.45 ± 0.75 h | total protein half-life in vivo [6]: 2.46 ± 0.13 h | total protein half-life in vivo [12]: 2.55 ± 0.13 h | total protein half-life in vivo [1]: 4.15 ± 0.58 h | total protein half-life in vivo [2]: 5.68 ± 1 h | total protein half-life in vivo [7]: 2.39 ± 0.054 h | total protein half-life in vivo [8]: 3.85 ± 1.1 h | total protein half-life in vivo [9]: 3.02 ± 0.39 h | total protein half-life in vivo [10]: 5.43 ± 0.18 h

MSIIKEFREFAMRGNVVDLAVGVIIGAAFGKIVSSLVADIIMPPLGLLIGGIDFKQFAVTLRDAQGDIPAVVMHYGVFIQNVFDFLIVAFAIFMAIKLINKLNRKKEEPAAAPAPTKEEVLLTEIRDLLKEQNNRS [P0A742]
total protein half-life in vivo [3]: 5.9 ± 0.17 h | total protein half-life in vivo [4]: 5.99 ± 0.24 h | total protein half-life in vivo [5]: 6.46 ± 0.16 h | total protein half-life in vivo [11]: 5.9 ± 0.71 h | total protein half-life in vivo [6]: 6.222 ± 0.036 h | total protein half-life in vivo [12]: 3.17 ± 0.14 h | total protein half-life in vivo [1]: 6.12 ± 0.27 h | total protein half-life in vivo [2]: 12.4 ± 1.9 h | total protein half-life in vivo [7]: 6.41 ± 0.12 h | total protein half-life in vivo [8]: 11.5 ± 2.5 h | total protein half-life in vivo [9]: 5.8 ± 0.23 h | total protein half-life in vivo [10]: 13.3 ± 1.1 h
